Laboratory results: patent US20170008959A1 (AbbVie / Abbott, published 2017)
No end group written: not given here.

T1: AP-Nogo66 (Nogo-66 with an N-terminal alkaline phosphatase tag) (human, UniProt Q9NQC3 1055-1120)
T1 construct: range 1055-1120; Migrates as a dimer of about 140 kDa in gel chromatography; the AP tag induces the dimerization; also called NgR ligand AP-Nogo-66; not shown: alkaline phosphatase tag encoded by vector pAP-tag5
T1 sequence (looked up): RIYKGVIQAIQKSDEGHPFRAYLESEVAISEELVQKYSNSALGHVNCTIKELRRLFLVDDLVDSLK

B1: AlterCharge1 (peptide)
peptide: FSRIRATHWRVDG
modifications: also: biotinylated, position not given here
notes: Control 13mer with four positive charges
B2: N-terminally truncated sRAGE (sRAGE 102-331) (receptor)
chain: MNRNGKETKSNYRVRVYQIPGKPEIVDSASELTAGVPNKVGTCVSEGSYPAGTLSWHLDGKPLVPNEKGVSVKEQTRRHPETGLFTLQSELMVTPARGGDPRPTFSCSFSPGLPRHRALRTAPIQPRVWEPVPLEEVQLVVEPEGGAVAPGGTVTLTCEVPAQPSPQIHWMKDGVPLPLPPSPVLILPEIGPQDQGTYSCVATHSSHGPQESRAVSISIIEPGEEGPTAGARGGPEQKLISEEDLNSAVDHHHHHH
notes: His-tagged, expressed from psecTAG 2A; no longer has a functional V domain
B3: sRAGE 1-331 (recombinant human sRAGE protein) (receptor)
chain: AQNITARIGEPLVLKCKGAPKKPPQRLEWKLNTGRTEAWKVLSPQGGGPWDSVARVLPNGSLFLPAVGIQDEGIFRCQAMNRNGKETKSNYRVRVYQIPGKPEIVDSASELTAGVPNKVGTCVSEGSYPAGTLSWHLDGKPLVPNEKGVSVKEQTRRHPETGLFTLQSELMVTPARGGDPRPTFSCSFSPGLPRHRALRTAPIQPRVWEPVPLEEVQLVVEPEGGAVAPGGTVTLTCEVPAQPSPQIHWMKDGVPLPLPPSPVLILPEIGPQDQGTYSCVATHSSHGPQESRAVSISIIEPGEEGPTAGGTKLGPEQKLISEEDLNSAVDHHHHHH
notes: His-tagged, from HEK 293 line 293/6.1 sRAGE His 6 (vector pcDNA3.1(-) Myc HIS); also called sRAGE-HIS
B4: His-NogoR fusion protein (receptor, human, UniProt Q9BZR6 27-447, looked up)
chain: CPGACVCYNEPKVTTSCPQQGLQAVPVGIPAASQRIFLHGNRISHVPAASFRACRNLTILWLHSNVLARIDAAAFTGLALLEQLDLSDNAQLRSVDPATFHGLGRLHTLHLDRCGLQELGPGLFRGLAALQYLYLQDNALQALPDDTFRDLGNLTHLFLHGNRISSVPERAFRGLHSLDRLLLHQNRVAHVHPHAFRDLGRLMTLYLFANNLSALPTEALAPLRALQYLRLNDNPWVCDCRARPLWAWLQKFRGSSSEVPCSLPQRLAGRDLKRLAANDLQGCAVATGPYHPIWTGRATDEEPLGLPKCCQPDAADKASVLEPGRPASAGNALKGRVPPGDSPPGNGSGPRHINDSPFGTLPGSAEPPLTAVRPEGSEPPGFPTSGPRRRPGCSRKNRTRSHCRLGQAGSGGGGTGDSEGS
notes: Low-glycosylated fraction of about 80 kDa from CHO-K1 cells; also called soluble His-NogoR; NgR-HIS; not shown: Myc/His tag of vector pcDNA4/MycHIS A

Key:
[1] = molecular target: T2, sRAGE-6×HIS (AA 23-352, NP_001127) (human, UniProt Q15109 23-331); experiment: AlphaScreen, biotinylated peptide on streptavidin donor beads, sRAGE-6×HIS 2.5 ng/µl on anti-HIS acceptor beads
T2 construct: range 23-352; Printed as a fusion protein with limits 23-352 on NP_001127; also called human sRAGE-6×HIS; RAGE receptor; not shown: 6×HIS tag
Experimental: The assay was carried out by the manufacturer's protocol in 25 mM HEPES, 100 mM NaCl of pH 7.4 and 0.1% BSA in a volume of 20 μl.
(§1) The individual components were brought together in a defined time sequence. […] The various amounts of peptide were then added in order, after a further 30 minutes, to add the donor beads. After a further 60 minutes, the fluorescence was measured in the AlphaQuest instrument from Perkin-Elmer with a time lag of one second. Each measured point was determined as triplicate. The evaluation and graphical workup of the results took place with the GraphPrism 4.0 software package.

[2] = molecular target: T3, Amyloid Aβ-1-42 oligomer (globulomer), biotinylated (UniProt P05067 672-713, biotinylated (1/5 biotin; position not stated)); experiment: HTRF competition: peptide preincubated with Aβ 1/5 biotin globulomer 800 nM, then sRAGE 1-331 added; blocked partner sRAGE
T3 construct: domain: Aβ 1-42; Concentrations are based on Aβ 1-42 monomers; also called Aβ oligomer; Aβ 1-42 oligomers

His-NogoR fusion protein = molecular target: B4; experiment: competition of AP-Nogo66 (0.1 nM) binding to coated His-NogoR
Experimental: (§2) This was followed by a blocking step for 1 hour with 2% strength bovine serum albumin (BSA) in Tris-HCl, pH 7.2, at room temperature. […] These stock solutions were then diluted three-fold.
(§3) After each incubation step, the plates were washed with washing buffer (10 mM Tris-HCl, pH 7.2 and 0.05% Tween20).

[3] = molecular target: T3, Amyloid Aβ-1-42 oligomer (globulomer), …; experiment: HTRF direct binding: Aβ 1/5 biotin globulomer titrated on His-tagged sRAGE; anti-6HIS cryptate and streptavidin XL-665
Experimental: After addition of 4 μl of a 2M KF stock solution, the complete mixture was measured in the BMG Pherastar fluorescence measuring instrument (BMG Labtech GmbH, Offenburg, Germany) in HTRF mode. For the background curve, measurements were used with in each case only the Anti6HIS cryptates and streptavidin XL solutions. The calculated % DeltaF values were transferred into GraphPad Prism 4 (GraphPad Software, San Diego, USA) and evaluated.

[4] = molecular target: T2, sRAGE-6×HIS (AA 23-352, NP_001127); experiment: AlphaScreen, biotinylated peptide and sRAGE-6×HIS
Experimental: The entire homogeneous assay was carried out in 25 mM HEPES, 100 mM NaCl of pH 7.4 and 0.1% BSA in a volume of 20 μl.
as §1, with “analysis” for “evaluation”

[5] = molecular target: T1, AP-Nogo66 (Nogo-66 with an N-terminal …); experiment: competition of AP-Nogo66 (0.1 nM) binding to coated His-NogoR
Experimental: as §2, §3

B1
EC50 (read off the curve) [1]: ~50 nM

LPRHRALRTAPIQPRVWEPVPLEEVQLVVE (Synthetic 30mer) [AGER-CDP peptide 7]
IC50 (read off the curve) [2]: ~4000 nM

QNITARIGEPLVLKCKGAPKKPPQRLEWKLN (also: biotin label in some assays, position not given here, also called Nterm 31; Nterm31) [NtermR31]
IC50 (His-NogoR fusion protein): 50 nM

B2
binding result [3]: binds

B3
binding result [3]: binds

TLQSELMVTPARGGDPRPTFSCSFSPGLPR (Synthetic 30mer) [AGER-CDP peptide 6]
binding result [2]: binds

CKGAPKKPPQRLE (also: biotinylated, position not given here (AlphaScreen assays only), also called Nterm 13) [NtermR13]
EC50 [4]: 66 nM

B4
IC50 [5]: 2 nM
